The values that follow come from patent US7125658B2, “Small protein that interacts with a ribonucleotide reductase subunit and uses thereof” (The Trustees of Columbia University in the City of New York, priority 1998, dated 2006).

This experiment deals with T1, GBD-Rnr2 two-hybrid fusion (plasmid pWJ729) (yeast (Saccharomyces cerevisiae), UniProt P04386 1-147; P09938 1-399).
T1 construct: Whole RNR2 ORF as cloned; also called GBD fusion RNR2
Kind of experiment: yeast two-hybrid, GAD-Sml1 with GBD-Rnr2. An excerpt:
We next tested the possibility that Sml1 interacts with the subunit(s) of RNR since such interactions may provide a regulatory mechanism to inhibit RNR activity. […] In addition, Rnr1 and Rnr2 each interacts with itself, however these interactions are much weaker than the interaction between Sml1 and Rnr1 (Table 2).
The strains and plasmids for two-hybrid analysis were PJ69-4A, pGBD-C2, pGAD-C2 (James et al., 1996) and pACTII (CLONTECH® Inc.). The primer pair pB-SML1 5' (SEQ ID NO: 11) and pGBD-SML1 3' (SEQ ID NO: 13) (Table 4) was used to amplify the SML1 ORF. After digestion with BamHI and PstI, this PCR product was cloned into the BamHI-PstI sites of pGBD-C2 to construct plasmid pWJ728. Similarly, plasmid pWJ684 contains a BamHI fragment from the PCR product of the SML1 ORF generated using the primer pair pB-SML1 5' and pB-SML1 3' (SEQ ID NO: 12) (Table 4) and inserted at the BamHI site of pACTII. PCR fragments containing the RNR1 or the RNR2 ORF were generated by primer pairs RNR1-ORF 5' (SEQ ID NO: 14) and RNR1 3' (SEQ ID NO: 15) or RNR2-ORF 5' (SEQ ID NO: 17) and RNR2 3' (SEQ ID NO: 16) (Table 4). These fragments were cloned into the BamHI-PstI site of pGBD-C2 and pGAD-C2 to construct pWJ731 and pWJ745 or pWJ729 and pWJ746 respectively.
The GAL1-HIS3 reporter was assayed on SC-HIS-LEU-TRP medium plus 1-2 mM 3-aminotriazole. […]

B1: GAD-Sml1 two-hybrid fusion (plasmid pWJ684, pACTII) (other, not shown: large carriers)
chain: MQNSQDYFYAQNRCQQQQAPSTLRTVTMAEFRRVPLPPMAEVPMLSTQNSMGSSASASASSLEMWEKDLEERLNSIDHDMNNNKFGSGELKSMFNQGKVEEMDF
In the case of B1, the binding result is “no binding”.
